In patent publication US20190153113A1, “CD39 VASCULAR ISOFORM TARGETING AGENTS” (INNATE PHARMA, priority 2015, published 2019):

Target: T1, Human CD39 (vascular CD39, NTPDase1, ENTPD1) expressed at the cell surface (human, UniProt P49961 1-510)
T1 sequence: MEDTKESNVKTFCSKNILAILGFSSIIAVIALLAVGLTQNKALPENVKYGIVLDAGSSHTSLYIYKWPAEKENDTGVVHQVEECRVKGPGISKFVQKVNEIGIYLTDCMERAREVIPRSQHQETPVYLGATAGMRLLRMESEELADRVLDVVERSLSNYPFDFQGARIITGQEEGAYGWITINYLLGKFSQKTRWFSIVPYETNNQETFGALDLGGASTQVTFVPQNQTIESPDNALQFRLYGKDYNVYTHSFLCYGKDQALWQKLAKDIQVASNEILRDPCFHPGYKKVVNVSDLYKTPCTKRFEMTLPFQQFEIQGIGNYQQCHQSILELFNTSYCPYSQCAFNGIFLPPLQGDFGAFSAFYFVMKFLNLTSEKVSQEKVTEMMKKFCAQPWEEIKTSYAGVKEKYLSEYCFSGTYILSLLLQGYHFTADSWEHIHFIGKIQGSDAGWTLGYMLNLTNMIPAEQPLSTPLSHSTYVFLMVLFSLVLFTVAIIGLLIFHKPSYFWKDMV
Experiment: cell-based or functional assay

- EC50 (inhibition of 50% of the enzymatic activity of CD39 expressed by 100,000 Ramos cells), AMP generated, Maldi TOF: 1.2 nM
B1: Antibody I-391, Fc silent recombinant chimeric human IgG1 with heavy chain N297Q mutation (antibody, V domains shown)
VH: QIQLVQSGPELKKPGETVKISCKASGYTFRNYGMNWVKQAPGKGLKWMGWINTYTGEPTYADDFKGRFAFSLATSASTAYLQISNLKNEDTATYFCARKAYYGSNYYFDYWGQGTTLTVSS
VL: DIVMTQSHKFMSTSVGDRVSITCKASQDVSTAVAWYQQKPGQSPKLLIYSASYRYTGVPDRFTGSGSGTDFTFTISTVQAEDLAVYYCQQHYTTPPYTFGGGTKLEIKR
